# In patent US20100311648A1 (AstraZeneca / MedImmune, published 2010):
# Positions of bridges follow the written chain, without caps; N, C: chain ends. Non-standard residues stand in square brackets, D forms with d. dPhe(4-CN) = N#Cc1ccc(C[C@@H](N)C(=O)O)cc1; dPhe(2-Cl) = N[C@H](Cc1ccccc1Cl)C(=O)O; dPhe(4-F) = N[C@H](Cc1ccc(F)cc1)C(=O)O; dPhe(2-F) = N[C@H](Cc1ccccc1F)C(=O)O; Orn = NCCC[C@H](N)C(=O)O
# B1: Ac-Arg-cyclo(Glu-Pro-D-Phe(2-F)-Arg-Trp-Orn)-NH2 (peptide)
# peptide: Ac-REP[dPhe(2-F)]RW[Orn]-NH2
# modifications: lactam 2-7
# SMILES: CC(=O)N[C@@H](CCCNC(=N)N)C(=O)N[C@H]1CCC(=O)NCCC[C@@H](C(N)=O)NC(=O)[C@H](Cc2c[nH]c3ccccc23)NC(=O)[C@H](CCCNC(=N)N)NC(=O)[C@@H](Cc2ccccc2F)NC(=O)[C@@H]2CCCN2C1=O
# notes: also called No. 66
# B2: Ac-Arg-cyclo(Glu-Ser-D-Phe(2-Cl)-Arg-Trp-Orn)-NH2 (peptide)
# peptide: Ac-RES[dPhe(2-Cl)]RW[Orn]-NH2
# modifications: lactam 2-7
# SMILES: CC(=O)N[C@@H](CCCNC(=N)N)C(=O)N[C@H]1CCC(=O)NCCC[C@@H](C(N)=O)NC(=O)[C@H](Cc2c[nH]c3ccccc23)NC(=O)[C@H](CCCNC(=N)N)NC(=O)[C@@H](Cc2ccccc2Cl)NC(=O)[C@H](CO)NC1=O
# notes: also called No. 31
# B3: Ac-Arg-cyclo(Glu-Ser-D-Phe(4-CN)-Arg-Trp-Orn)-NH2 (peptide)
# peptide: Ac-RES[dPhe(4-CN)]RW[Orn]-NH2
# modifications: lactam 2-7
# SMILES: CC(=O)N[C@@H](CCCNC(=N)N)C(=O)N[C@H]1CCC(=O)NCCC[C@@H](C(N)=O)NC(=O)[C@H](Cc2c[nH]c3ccccc23)NC(=O)[C@H](CCCNC(=N)N)NC(=O)[C@@H](Cc2ccc(C#N)cc2)NC(=O)[C@H](CO)NC1=O
# notes: also called No. 45
# B4: Ac-Arg-cyclo(Glu-Pro-D-Phe(4-F)-Arg-Trp-Orn)-OH (peptide)
# peptide: Ac-REP[dPhe(4-F)]RW[Orn]-OH
# modifications: lactam 2-7
# SMILES: CC(=O)N[C@@H](CCCNC(=N)N)C(=O)N[C@H]1CCC(=O)NCCC[C@@H](C(=O)O)NC(=O)[C@H](Cc2c[nH]c3ccccc23)NC(=O)[C@H](CCCNC(=N)N)NC(=O)[C@@H](Cc2ccc(F)cc2)NC(=O)[C@@H]2CCCN2C1=O
# B5: Ac-Arg-cyclo(Glu-Pro-D-Phe(4-CN)-Arg-Trp-Orn)-NH2 (peptide)
# peptide: Ac-REP[dPhe(4-CN)]RW[Orn]-NH2
# modifications: lactam 2-7
# SMILES: CC(=O)N[C@@H](CCCNC(=N)N)C(=O)N[C@H]1CCC(=O)NCCC[C@@H](C(N)=O)NC(=O)[C@H](Cc2c[nH]c3ccccc23)NC(=O)[C@H](CCCNC(=N)N)NC(=O)[C@@H](Cc2ccc(C#N)cc2)NC(=O)[C@@H]2CCCN2C1=O
# notes: also called No. 39
# Experiments:
# melanocortin-1 receptor = molecular target: T1, melanocortin-1 receptor (mouse (B-16 melanoma cells); in some …, UniProt Q01727 1-315); experiment: [I125]-NDP-α-MSH competition, MC1-R membranes
# T1 construct: whole, on cells; membrane homogenates; also called MC1-R; mouse B16 MC1-R
# Experimental: A competitive inhibition binding assay was performed for exemplified peptides according to the invention using membrane homogenates prepared from HEK-293 cells that express recombinant hMC4-R, hMC3-R, or hMC5-R, and from B-16 mouse melanoma cells (containing endogenous MC1-R). In some instances, HEK-293 cells that express recombinant hMC1-R were employed. Assays were performed in 96 well GF/B Millipore multiscreen filtration plates (MAFB NOB10) pre-coated with 0.5% bovine serum albumin (Fraction V). […] After incubation for 60 minutes at 37° C., the assay mixture was filtered and the membranes washed three times with ice-cold buffer. Filters were dried and counted in a gamma counter for bound radioactivity. […] Each assay was conducted in triplicate and the actual mean values are described, with results less than 0% reported as 0%. Ki values for test peptides of the present invention were determined using Graph-Pad Prism® curve-fitting software.
# [1] = molecular target: T2, human melanocortin-4 receptor (human, UniProt P32245 1-332); experiment: [I125]-NDP-α-MSH competition, hMC4-R HEK-293 membranes
# T2 construct: whole, on cells; functional assay: HEK293-T-REx-MC4-R cells induced with 0.1 or 10 ng/mL doxycycline; also called hMC4-R; MC4-R
# [2] = molecular target: T2, human melanocortin-4 receptor; experiment: cell-based or functional assay
# T1 sequence (Q01727 whole entry): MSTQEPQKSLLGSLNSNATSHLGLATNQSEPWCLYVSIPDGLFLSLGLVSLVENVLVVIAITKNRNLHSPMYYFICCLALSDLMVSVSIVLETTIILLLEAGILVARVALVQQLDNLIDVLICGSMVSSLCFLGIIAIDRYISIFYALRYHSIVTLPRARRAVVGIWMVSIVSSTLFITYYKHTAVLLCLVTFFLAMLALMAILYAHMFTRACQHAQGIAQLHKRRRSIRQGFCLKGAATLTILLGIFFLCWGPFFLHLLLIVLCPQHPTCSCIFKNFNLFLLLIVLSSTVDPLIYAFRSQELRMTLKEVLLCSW
# T2 sequence (P32245 whole entry): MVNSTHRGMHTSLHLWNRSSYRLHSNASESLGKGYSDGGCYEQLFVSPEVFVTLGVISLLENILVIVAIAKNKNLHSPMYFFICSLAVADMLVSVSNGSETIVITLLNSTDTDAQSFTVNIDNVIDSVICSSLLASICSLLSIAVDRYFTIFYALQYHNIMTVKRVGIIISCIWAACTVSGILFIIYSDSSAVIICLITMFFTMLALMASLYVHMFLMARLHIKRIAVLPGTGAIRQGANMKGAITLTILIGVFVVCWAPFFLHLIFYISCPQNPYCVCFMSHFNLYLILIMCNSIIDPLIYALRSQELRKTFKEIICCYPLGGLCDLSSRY
Binder,Ki (melanocortin-1 receptor) [nM],Ki [1] [nM],"EC50, cAMP, 0.1 ng/mL Doxycycline [2] [nM]","EC50, cAMP, 10 ng/mL Doxycycline [2] [nM]","Intrinsic Activity, cAMP, 0.1 ng/mL Doxycycline [2] [%]","Intrinsic Activity, cAMP, 10 ng/mL Doxycycline [2] [%]"
B1,95,6,5,0.265,32,88
B2,300,8,7,0.313,33,98
B3,10000,10,,0.45,12,87
"Ac-REP[dPhe(4-F)]RW[Orn]-NH2 (lactam 2-7; also: acetate salt, acetate salt form; also called Ex 67) [Ac-Arg-cyclo(Glu-Pro-D-Phe(4-F)-Arg-Trp-Orn)-NH2]",130,5,1,0.14,38,99
B4,730,30,18,0.725,30,97
B5,1550,4,,1,4,79
